Laboratory results as given in publication PMC9505750.

Tests used:
Settings in all cases: remark: other sources report otherwise
[1] = target: full-length wild-type APOBEC3G (human), Q9HC16; experiment: SEC-SAXS; A3Gfl 2.5 mg/mL with the 40-mer ssDNA CCdZ-T30-oligo at a 1 to 2 molar ratio; SEC-SAXS, 25 °C, 50 mM phosphate pH 6.0, 200 mM NaCl, 2 mM β-ME, 5% glycerol, 200 µM Na2-EDTA; Gaussian decomposition
[2] = target: full-length wild-type APOBEC3G (human), Q9HC16; experiment: SEC-SAXS; ligand-free A3Gfl; SEC (Superdex 200 Increase 5/150 GL) with co-flow SAXS, 25 °C, 2.5 mg/mL A3Gfl loaded (about 1.3 mg/mL after SEC), 50 mM phosphate pH 6.0, 200 mM NaCl, 2 mM β-ME, 5% glycerol, 200 µM Na2-EDTA; species separated by SVD/EFA and Gaussian decomposition
[3] = target: full-length wild-type APOBEC3G (human), Q9HC16; experiment: as above; remark: listed apart in the source

stoichiometry N [1]: 4
stoichiometry N [2]: 2
stoichiometry N [3]: 4
B1: full-length wild-type APOBEC3G, Q9HC16 1-384 (enzyme)
chain: MKPHFRNTVERMYRDTFSYNFYNRPILSRRNTVWLCYEVKTKGPSRPPLDAKIFRGQVYSELKYHPEMRFFHWFSKWRKLHRDQEYEVTWYISWSPCTKCTRDMATFLAEDPKVTLTIFVARLYYFWDPDYQEALRSLCQKRDGPRATMKIMNYDEFQHCWSKFVYSQRELFEPWNNLPKYYILLHIMLGEILRHSMDPPTFTFNFNNEPWVRGRHETYLCYEVERMHNDTWVLLNQRRGFLCNQAPHKHGFLEGRHAELCFLDVIPFWKLDLDQDYRVTCFTSWSPCFSCAQEMAKFISKNKHVSLCIFTARIYDDQGRCQEGLRTLAEAGAKISIMTYSEFKHCWDTFVDHQGCPFQPWDGLDEHSQDLSGRLRAILQNQEN
